This experiment addresses T1, His-p55 (recombinant His-tagged erythrocyte p55/MPP1) (human, UniProt Q00013-1 1-466).
T1 sequence (looked up): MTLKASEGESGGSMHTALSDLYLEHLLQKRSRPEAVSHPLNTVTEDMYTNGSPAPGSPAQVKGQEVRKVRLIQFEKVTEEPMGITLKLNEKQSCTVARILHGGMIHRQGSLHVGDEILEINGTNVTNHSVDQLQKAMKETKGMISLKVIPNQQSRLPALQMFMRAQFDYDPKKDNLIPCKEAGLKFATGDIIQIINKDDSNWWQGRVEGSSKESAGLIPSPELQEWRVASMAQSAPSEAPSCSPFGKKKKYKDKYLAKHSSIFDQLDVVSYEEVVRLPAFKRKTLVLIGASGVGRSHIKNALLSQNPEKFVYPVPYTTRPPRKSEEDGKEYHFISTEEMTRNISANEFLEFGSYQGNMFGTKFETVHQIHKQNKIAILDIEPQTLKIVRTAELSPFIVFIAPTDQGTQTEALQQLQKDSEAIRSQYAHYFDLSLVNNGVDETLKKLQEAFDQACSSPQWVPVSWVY
Kind of experiment: SPR. Background: Surface plasmon resonance follows binding to a sensor surface in real time, without labels.

B1: MBP-NF2-N (merlin N-terminal half, aa 1-311, including the FERM domain) (domain or fragment, human, UniProt P35240 1-311, looked up)
chain: MAGAIASRMSFSSLKRKQPKTFTVRIVTMDAEMEFNCEMKWKGKDLFDLVCRTLGLRETWFFGLQYTIKDTVAWLKMDKKVLDHDVSKEEPVTFHFLAKFYPENAEEELVQEITQHLFFLQVKKQILDEKIYCPPEASVLLASYAVQAKYGDYDPSVHKRGFLAQEELLPKRVINLYQMTPEMWEERITAWYAEHRGRARDEAEMEYLKIAQDLEMYGVNYFAIRNKKGTELLLGVDALGLHIYDPENRLTPKISFPWNEIRNISYSDKEFTIKPLDKKIDVFKFNSSKLRVNKLILQLCIGNHDLFMRRR
Usually Kd stands for the constant that tells how readily two partners part at equilibrium. As to B1, the Kd was found to be 3.7 nM.

(Values after publication PMC3959803 (Experimental biology and medicine (Maywood, N.J.), 2009).)
